The target in one assay is T1, human CD4 (human, UniProt P01730 26-390, limits assumed).
T1 construct: also called 人CD4蛋白
Put plainly: ELISA, plate coated with 1 μg/mL human CD4. A general note: In an ELISA, binding on a coated surface is turned into a signal by an enzyme label.

The target of assay [1] is T2, human LAG-3, full length, on transfected cells (human, UniProt P18627 23-525).
T2 sequence: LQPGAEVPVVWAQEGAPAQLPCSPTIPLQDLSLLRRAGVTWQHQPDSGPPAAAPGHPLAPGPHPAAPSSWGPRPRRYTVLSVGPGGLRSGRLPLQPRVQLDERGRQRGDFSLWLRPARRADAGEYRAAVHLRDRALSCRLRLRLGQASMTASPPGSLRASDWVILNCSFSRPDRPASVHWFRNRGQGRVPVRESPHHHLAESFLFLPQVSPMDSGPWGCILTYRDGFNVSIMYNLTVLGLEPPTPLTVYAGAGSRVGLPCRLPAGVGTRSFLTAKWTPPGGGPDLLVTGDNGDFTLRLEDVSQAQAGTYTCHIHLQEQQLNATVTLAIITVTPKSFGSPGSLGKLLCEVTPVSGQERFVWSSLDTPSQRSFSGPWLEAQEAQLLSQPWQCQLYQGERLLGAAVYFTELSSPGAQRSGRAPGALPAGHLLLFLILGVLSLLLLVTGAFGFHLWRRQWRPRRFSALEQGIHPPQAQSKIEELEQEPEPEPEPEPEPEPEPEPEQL
Kind of assay: cell-based or functional assay.

Assay [2] deals with T3, cynomolgus LAG-3 on 293F cells (cynomolgus monkey).
T3 construct: whole, on cells; also called 食蟹猴LAG-3; 细胞表面食蟹猴LAG-3
Kind of assay: FACS on 293F cells expressing cynomolgus LAG-3.

For assay [3], the target named is T4, mouse LAG-3 on Flp-In-CHO cells (mouse, UniProt Q61790 24-521).
T4 construct: whole, on cells; also called 鼠LAG-3; 细胞表面小鼠LAG-3
T4 sequence (looked up): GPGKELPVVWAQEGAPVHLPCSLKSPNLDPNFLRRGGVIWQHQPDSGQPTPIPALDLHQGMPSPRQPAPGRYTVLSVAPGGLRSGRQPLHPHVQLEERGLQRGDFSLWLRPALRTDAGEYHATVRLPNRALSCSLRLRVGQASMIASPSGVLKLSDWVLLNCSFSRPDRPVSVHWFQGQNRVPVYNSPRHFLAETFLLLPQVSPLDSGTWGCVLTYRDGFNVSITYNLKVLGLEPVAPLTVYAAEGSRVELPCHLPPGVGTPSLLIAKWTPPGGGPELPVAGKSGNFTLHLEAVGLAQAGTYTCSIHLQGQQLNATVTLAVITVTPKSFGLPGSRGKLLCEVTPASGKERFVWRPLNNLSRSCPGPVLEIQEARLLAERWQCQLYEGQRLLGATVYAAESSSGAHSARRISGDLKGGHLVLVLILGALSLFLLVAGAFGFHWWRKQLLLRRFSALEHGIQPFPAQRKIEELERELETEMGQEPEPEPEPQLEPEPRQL
Kind of assay: FACS on Flp-In-CHO cells expressing mouse LAG-3.

These results are taken from patent CN115057931A (GUANGZHOU YUHENG BIOTECHNOLOGY CO LTD, dated 2022).

B1: 3.40.19-uAb-IgG4L (antibody, V domains shown)
VH: QLQLQESGPGLVKPSETLSLTCTVSGDSISSTSYYWGWIRQPPGKGLEWIGSFYYSGSTYYNPSLKSRVTISVDTSKNQFSLKLNSVTAADTAVYYCARMQLWSYDVDVWGQGTTVTVSS
VL: QSALTQPASVSGSPGQSITISCTGTSSDVGGYDYVAWYQQHPGKVPKLMIYDVSERPSGVSNRFSGSKSGNTASLTISGLQAEDEADYYCSSYTSTTTLVVFGGGTKLSVL
notes: Fully human antibody from OMT rats; also called 3.40.19-uAb-hIgG4L
Usually EC50 stands for the midpoint of the concentration-response curve. Regarding B1, the binding result with human CD4 is listed as “no binding (tested: 1μg/mL)”. The “EC50(nM), IL-2 luciferase reporter in Jurkat cells expressing human LAG-3 with Raji cells and SEE” value in assay [1] turned out to be 0.21 nM. This molecule also displayed an EC50 in assay [2] of 3.92 nM.

B2: 1.53.3-uAb-IgG4k (antibody, V domains shown)
VH: QVQLQQWGAGLLKPSETLSLTCGVYGGSFSGYYWSWIRQPPGMGLEWIGEINHRGNTNYNPSLKSRVTISEDTSKNQFSLRLSSVTAADTAVYFCTRGEDYSDYDYYGDFWGQGTLVTVSS
VL: EIVLTQSPATLSLSQGERATLSCRASQSISSYLAWYQQKPGQAPRLLIYAASNRATGIPARFSGSGSGTDFTLTISSLEPEDFAIYYCQQRSNWPLTFGGGTKVEIK
notes: Fully human antibody from OMT rats; the other pair 15/16 goes with CDRs 7-12 in CLM-00002
B2: the figures for the binding result (in assay [3]; with human CD4) were “no binding” and “no binding (tested: 1μg/mL)”, respectively. In assay [1], the “EC50(nM), IL-2 luciferase reporter in Jurkat cells expressing human LAG-3 with Raji cells and SEE” value stood at 1.07 nM. Moreover, the EC50 in assay [2] is 4.01 nM.
